Measured values: paper PMC5771497

Assays:
[1] = target: T1, PRC2 5-mer (EZH2-EED-SUZ12-RBBP4-AEBP2) (Homo sapiens, UniProt Q15910-2;O75530;Q15022;Q09028;Q6ZN18 1-751;1-441;1-739;1-425;1-517); experiment: fluorescence polarization
[2] = target: T1, PRC2 5-mer (EZH2-EED-SUZ12-RBBP4-AEBP2); experiment: competition
[3] = target: T1, PRC2 5-mer (EZH2-EED-SUZ12-RBBP4-AEBP2); experiment: competition; remark: listed apart in the source
[4] = target: T1, PRC2 5-mer (EZH2-EED-SUZ12-RBBP4-AEBP2); experiment: EMSA

B1: (CG)30 dsDNA (dsDNA)
DNA 1: CGCGCGCGCGCGCGCGCGCGCGCGCGCGCGCGCGCGCGCGCGCGCGCGCGCGCGCGCGCG
DNA 2: B1 DNA 1
[1]
  binding result: binds

## AAAAAAAAAAAAAAAAAAAAAAAAAAAAAAAAAAAAAAAA (ssRNA) [Poly(A)40 RNA]
[2]
  binding result: no binding

## GGAAGGAAGGAAGGAAGGAAGGAAGGAAGGAAGGAAGGAA (structured_RNA) [(GGAA)10 RNA]
[3]
  binding result: binds

B2: (mCpG)24 dsDNA (dsDNA)
DNA 1: CGCGCGCGCGCGCGCGCGCGCGCGCGCGCGCGCGCGCGCGCGCGCGCG
DNA 2: B2 DNA 1
modifications: 5-methyl-C at CpG
[4]
  Kd: 11.3 ± 6.2 nM
